The values below come from US20140314668A1, “TECHNETIUM-99M LABELED COMPLEX OF GOLD NANOPARTICLE-GOLD BINDING PEPTIDES, AND METHOD OF MAKING AND USING THE SAME” (Korea Atomic Energy Research Institute, priority 2013, published 2014).

This data set in a line: NaCl-induced aggregation method (adsorption of GBP1 on the surface of GNPs, UV-Vis). The class given is physicochemical. As to the method: In order to investigate a minimum concentration of GBP1 required for complete adsorption on the surface of gold nanoparticles (GNPs), since it is known that salts such as NaCl induce aggregation of gold and other nanoparitices (H.M.L. M. Y. Lin et al, Nature, 339, 1989, 360-362), an NaCl-induced aggregation method was used, and concentration of GBP1 adsorbed on the surface of GNPs was analyzed.
A variety of concentrations of GBP1 were added to 0.5 mL of GNP solution (O.D.=1.0, D=10 nm) to form a mixture, followed by standing for 10 minutes at room temperature. Next, 10% NaCl solution was added to the mixture so as to have a final concentration of 0.5% in order to induce aggregation of GNPs, followed by standing for 10 minutes at room temperature. Subsequently, in order to protect additional aggregation, 0.1% BSA was added to the resultant, followed by standing for 10 minutes at room temperature. Finally, aggregation degree of GNPs was measured in a wavelength range of 220 to 700 nm by UV-Vis spectrophotometer, and the measurement results are shown in FIG. 1.

With “GBP1: synthetic gold binding peptide 1, amino acid sequence (SEQ ID No. 1): MHGKTQATSGTIQS (GBP1)”, for the setting “0.5 mL GNP solution (O.D.=1.0, D=10 nm), 0.5% NaCl final, room temperature”, the “GBP1 concentration at which aggregation of GNPs is prevented” value is given as “more than 10 μg/ml”. For the same substance, the “main surface plasmon band of the GNP solution (red-shifted)” value (GBP1 concentration of 10 μg/ml or less, in the presence of NaCl) is recorded as 525 nm.
